From PMC11417369, “DNA sequence and chromatin differentiate sequence-specific transcription factor binding in the human malaria parasite Plasmodium falciparum” come the findings set out here.

One series addresses T1, HDP1 homeodomain-like (Plasmodium falciparum, UniProt Q8IKH4 2990-3078).
T1 sequence: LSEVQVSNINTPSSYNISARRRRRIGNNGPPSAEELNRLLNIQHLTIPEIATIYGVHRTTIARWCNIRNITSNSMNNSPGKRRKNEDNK
Briefly: gcPBM; about 25 ug protein; PBS, 1% milk, 0.2 mg/ml BSA, salmon testes DNA, 0.03% Triton X-100. As to conditions: tags: N-terminal GST (pGEX-4T-1), kept; chain copies: 2; label: surface-attached array probe.

Another series addresses AP2-I D3 (Plasmodium falciparum, UniProt Q8IJW6 910-1027). The series is described as above. As to conditions: tags: N-terminal GST (pGEX-4T-1), kept; label: surface-attached array probe.

B1: GTGCAC_site9679 (dsDNA)
DNA 1: TTTCTTTAATATATAGTGCATGTAAATTTTACAATA
DNA 2: TATTGTAAAATTTACATGCACTATATATTAAAGAAA
With B1, the binding signal in the series with HDP1 homeodomain-like was 8.12 ln median PBM intensity, better of two orientations; with AP2-I D3 it was 9.43 ln median PBM intensity, better of two orientations.

B2: GTGCAC_site10491 (dsDNA)
DNA 1: TAGTGATATAATTATGTGCACTTAATACAGGTCGAT
DNA 2: ATCGACCTGTATTAAGTGCACATAATTATATCACTA
For B2, the binding signal was 11.1 ln median PBM intensity, better of two orientations with HDP1 homeodomain-like and 11.1 ln median PBM intensity, better of two orientations in the series with AP2-I D3.

B3: GTGCAC_site10685 (dsDNA)
DNA 1: TTATATTTCACAAATGTGCACAGATACATATATATA
DNA 2: TATATATATGTATCTGTGCACATTTGTGAAATATAA
As to B3, the binding signal with HDP1 homeodomain-like is 11.1 ln median PBM intensity, better of two orientations; with AP2-I D3 it was 10.1 ln median PBM intensity, better of two orientations.

B4: GTGCAC_negctrl_site138 (dsDNA)
DNA 1: AAAAACAATCATTTTAAATAAAAATCTCTAATTTAA
DNA 2: TTAAATTAGAGATTTTTATTTAAAATGATTGTTTTT
Regarding B4, the binding signal with HDP1 homeodomain-like was 5.6 ln median PBM intensity, better of two orientations; with AP2-I D3 it was 6.74 ln median PBM intensity, better of two orientations.

B5: GTGCAC_site10780 (dsDNA)
DNA 1: TACAGTTCAATGAAGGTGCAATTAATATATAAAATA
DNA 2: TATTTTATATATTAATTGCACCTTCATTGAACTGTA
Take B5: the binding signal is 9.1 ln median PBM intensity, better of two orientations with HDP1 homeodomain-like and 11.1 ln median PBM intensity, better of two orientations with AP2-I D3.

B6: GTGCAC_site10741 (dsDNA)
DNA 1: AAACAAAACAACTAAGTGCATAAAAATAAAATAAAT
DNA 2: ATTTATTTTATTTTTATGCACTTAGTTGTTTTGTTT
As for B6, the binding signal with HDP1 homeodomain-like is 8.67 ln median PBM intensity, better of two orientations; with AP2-I D3 it was 10.7 ln median PBM intensity, better of two orientations.

B7: GTGCAC_site10292 (dsDNA)
DNA 1: ATAATATGTTATTAAGTGCATATTAATTATTATTAT
DNA 2: ATAATAATAATTAATATGCACTTAATAACATATTAT
In the case of B7, the binding signal with HDP1 homeodomain-like was 9.18 ln median PBM intensity, better of two orientations; with AP2-I D3, 9.72 ln median PBM intensity, better of two orientations.

B8: GTGCAC_site9591 (dsDNA)
DNA 1: ACATATTATATATGTGTGCACATATATATATATTTA
DNA 2: TAAATATATATATATGTGCACACATATATAATATGT
Regarding B8, the binding signal was 9.98 ln median PBM intensity, better of two orientations with HDP1 homeodomain-like and 9.12 ln median PBM intensity, better of two orientations with AP2-I D3.

B9: GTGCAC_site9478 (dsDNA)
DNA 1: ATATTATATTGGATGTTGCACTTAACAAAAGGATAT
DNA 2: ATATCCTTTTGTTAAGTGCAACATCCAATATAATAT
On to B9, for which the binding signal is 8.41 ln median PBM intensity, better of two orientations with HDP1 homeodomain-like and 9.38 ln median PBM intensity, better of two orientations in the series with AP2-I D3.

B10: GTGCAC_site9796 (dsDNA)
DNA 1: ATATATATATATATAGTGCAAATAAAAAATAGACAA
DNA 2: TTGTCTATTTTTTATTTGCACTATATATATATATAT
In the case of B10, the binding signal was 10 ln median PBM intensity, better of two orientations in the series with HDP1 homeodomain-like and 11.2 ln median PBM intensity, better of two orientations with AP2-I D3.

B11: GTGCAC_site9541 (dsDNA)
DNA 1: ATGAGTAACATATTTGTGCACATATGGTTATTTTTA
DNA 2: TAAAAATAACCATATGTGCACAAATATGTTACTCAT
Turning to B11, the binding signal with HDP1 homeodomain-like was 11.1 ln median PBM intensity, better of two orientations; with AP2-I D3, 10.4 ln median PBM intensity, better of two orientations.

B12: GTGCAC_site9967 (dsDNA)
DNA 1: ACATCGATTTATATTCTGCACTGAAGAAACTACAAC
DNA 2: GTTGTAGTTTCTTCAGTGCAGAATATAAATCGATGT
B12: the binding signal with HDP1 homeodomain-like is 7.69 ln median PBM intensity, better of two orientations; with AP2-I D3, 9.3 ln median PBM intensity, better of two orientations.

B13: GTGCAC_site9829 (dsDNA)
DNA 1: GAACGAAATAAGTGTGTGCACATGTAACCACAAATC
DNA 2: GATTTGTGGTTACATGTGCACACACTTATTTCGTTC
For B13, the binding signal with HDP1 homeodomain-like was 9.93 ln median PBM intensity, better of two orientations; in the series with AP2-I D3 it was 9.08 ln median PBM intensity, better of two orientations.

B14: GTGCAC_site9965 (dsDNA)
DNA 1: AAGAACAAATATGAGGTGCAACACAATATATTATTA
DNA 2: TAATAATATATTGTGTTGCACCTCATATTTGTTCTT
Turning to B14, the binding signal in the series with HDP1 homeodomain-like is 10.2 ln median PBM intensity, better of two orientations; in the series with AP2-I D3 it was 9.55 ln median PBM intensity, better of two orientations.
